Data set [1] can be described thus: fmoc spps; Fmoc-beta-Ala-OH preloaded Wang resin (0.19 or 0.46 mmol g-1); PyBOP/NMM; PyBOP/HOAt/DIPEA (or HBTU) for PMO conjugation. The conditions noted are these: conjugation step, UV-Vis, based on PMO extinction coefficient, scale 10 pmol or 100 pmol (so in the source).
Data set [2] can be described thus: Toxicological assessment of peptide-PMO (urinary KIM-1, NGAL; serum BUN). The format is in vivo, C57BL/6 mice. To be noted: for urinary KIM-1 levels: single dose 30 mg/kg (2.5-50 mg/kg); for urinary KIM-1 levels / urinary NGAL levels: urine Day 2 and Day 7, normalised to urinary creatinine; for urinary NGAL levels: single dose 30 mg/kg. The protocol:
Female C57BL/6 mice aged 8-10 weeks were administered a single 30 mg/kg dose of peptide-PMO in 0.9% saline by bolus intravenous tail vein injection. Urine was non-invasively collected under chilled conditions at Day 2 and Day 7 post-administration following 20 hours housing in metabolic cages (Tecniplast, UK). Serum was collected from jugular vein at Day 7 at necropsy, as was tibialis anterior, diaphragm and heart tissue.
The same procedure was followed at different single dosage amounts ranging from 2.5 mg/kg up to 50 mg/kg of peptide-PMO in 0.9% saline by intravenous tail vein injection.
Urinary levels of KIM-1 (Kidney injury molecule-1) and NGAL (Neutrophil Gelatinase-Associated Lipocalin) were quantified by ELISA (KIM-1 R&D cat #MKM100, NGAL R&D cat #MLCN20) following appropriate dilution of urine to fit standard curves. Values were normalised to urinary creatinine levels that were quantified at MRC Harwell Institute, Mary Lyon Centre, Oxfordshire, UK. Serum blood urea nitrogen levels were quantified at MRC Harwell Institute, Mary Lyon Centre, Oxfordshire, UK.
All levels were quanitifed on an AU680 Clinical Chemistry Analyser, Beckman Coulter. Quantification of exon skipping efficacy was determined by quantitative RT-PCR of exon 23 skipped and unskipped transcripts and expressed as percentage of skipped versus total (skipped and unskipped) transcripts (see Table 7 for sequences).

Another data set relates to dystrophin. The conditions noted are these: in vivo; cited from earlier work.
The test system of a further data set is human hepatocytes. In words: Hepatocyte cell viability (fluorescent-based assay). To be noted: 40 uM. The protocol: Immortalized myoblasts from healthy individual or DM1 patient with 2600 CTG repeats were cultivated in a growth medium consisting of a mix of M199: DMEM (1:4 ratio; Life technologies) supplemented with 20% FBS (Life technologies), 50 µg/ml gentamycin (Life technologies), 25 pg/ml fetuin, 0.5 ng/ml bFGF, 5 ng/ml EGF and 0.2 pg/ml dexamethasone (Sigma-Aldrich). Myogenic differentiation was induced by switching confluent cell cultures to DMEM medium supplemented with 5 pg/ml insulin (Sigma-Aldrich) for myoblasts. For treatment, WT or DM1 cells are differentiated for 4 days. Then, medium was changed with fresh differentiation medium with peptide-PMOs at a 1, 2, 5 10, 20 or 40 pM concentration. Cells were harvested for analysis 48 h after treatment. Cell viability was quantified in after 2 days of transfection of peptide-PMOs at 40 uM in human hepatocytes or at a 1, 2, 5 10, 20 or 40 pM concentration in human myoblasts using a fluorescent-based assay (Promega).

Data set [3] is described as follows: Recovery times of mice after injection with peptide-PMOCAG7 conjugates. The data set is classed as in vivo, C57BL6 mice. The conditions noted are these: 12.5 mg/kg; HSA-LR mice; age 8-12 weeks. The procedure: Animal experiments and ASO injections. Experiments were carried out in the University of Oxford according to UK legislation. The intravenous injections in HSA-LR C57BL/6 mice were performed by single or repeated administrations via the tail vein. Doses of 30, 12.5, 7.5 and 5 mg/kg of peptide-PMO-CAG7 (SEQ ID NO: 192) were diluted in 0.9% saline and given at a volume of 5-6 pL/g of body weight. KIM-1 levels in C57BL6 female mice measured by ELISA (R&D cat #MKM100) with samples diluted to fit within standard curve. Values were normalised to urinary creatinine levels (Harwell) to account for urine protein concentration.

Results on 7 substances are retold here after US12673108B2 (Oxford University Innovation Limited, priority 2021, dated 2026).

Square brackets hold non-standard residues; d marks the D form. Ends that are not written are not given here. Ahx = NCCCCCC(=O)O; βAla = NCCC(=O)O

On to “Ac-RBRRBRFQILYBRBR-(E)-PMO (GGCCAAACCTCGGCTTACCTGAAAT; peptide Ac-RBRRBRFQILYBRBR-(E) conjugated, chemistry not fully specified)”, for which, in data set [1], the conjugation yield turned out to be 39%. Regarding “Ac-RBRRBRRFQILYRBHBH-(Ab)-PMO (GGCCAAACCTCGGCTTACCTGAAAT; listed as DNA, chemistry not fully specified)”, the conjugation yield in data set [1] is reported as 26%. As to “DPEP 1.9 (Ac-R[βAla]RR[βAla]RFQILY[βAla]R[βAla]R[βAla]; also: PMO conjugate, site not given here)”, in data set [2], the “urinary KIM-1 levels” value is “lowest levels” and the “urinary NGAL levels” value is recorded as “lowest levels”. As to “DPEP 3.8 (Ac-R[βAla]RR[βAla]RFQILYR[βAla]H[βAla]H[βAla]; also: PMO conjugate, site not given here)”, in data set [2], the “urinary KIM-1 levels” value was “lowest levels” and the “urinary NGAL levels” value is listed as “lowest levels”. For “Pip9b2 (Ac-R[Ahx]RR[βAla]RRFQILYR[βAla]R[Ahx]R[βAla]; also: PMO conjugate, site not given here) [reference compound]”, the “Serum blood urea nitrogen levels” value in data set [2] (7 days after single dose of 30 mg/kg) is “elevated”. On to eteplirsen, for which the “levels of dystrophin restoration” value in the data set with dystrophin is recorded as “approximately 1 % of normal dystrophin levels”. Regarding “pip6a: prior peptide carrier AC-RXRRBRRXR-YQFLI-RXRBRXR-B conjugated to [CAG]7 PMO (SEQ ID NO: 192) (Ac-R[Ahx]RR[βAla]RR[Ahx]RYQFLIR[Ahx]R[βAla]R[Ahx]R[βAla]; also: conjugated to [CAG]7 PMO, site not given here) [reference compound]”, in the data set with human hepatocytes, the “percentage hepatocyte cell viability” value is listed as “cell mortality”. Moreover, the “Recovery time after injection, Time AV ± SD” value in data set [3] was over 60 min.
